The values below come from CN111138530A (INST MILITARY MEDICINE ACADEMY MILITARY SCIENCES PLA, dated 2020).

The target in one test is GP 95-295 (Ebola virus (EBOV), UniProt Q05320 95-295). The experiment in a line: ELISA on coated truncated GP. Background: An ELISA detects its analyte on a solid surface through an enzyme-linked reagent.
In another test the target is sGP (Ebola virus (EBOV), UniProt Q05320 33-295). The experiment in a line: ELISA on coated truncated GP.
The next test concerns the target GP1 (Ebola virus (EBOV), UniProt Q05320 33-501). The experiment in a line: ELISA on coated truncated GP.
The target in another test is T1, RESTV GP (RESTV, UniProt Q66799 34-651).
T1 sequence: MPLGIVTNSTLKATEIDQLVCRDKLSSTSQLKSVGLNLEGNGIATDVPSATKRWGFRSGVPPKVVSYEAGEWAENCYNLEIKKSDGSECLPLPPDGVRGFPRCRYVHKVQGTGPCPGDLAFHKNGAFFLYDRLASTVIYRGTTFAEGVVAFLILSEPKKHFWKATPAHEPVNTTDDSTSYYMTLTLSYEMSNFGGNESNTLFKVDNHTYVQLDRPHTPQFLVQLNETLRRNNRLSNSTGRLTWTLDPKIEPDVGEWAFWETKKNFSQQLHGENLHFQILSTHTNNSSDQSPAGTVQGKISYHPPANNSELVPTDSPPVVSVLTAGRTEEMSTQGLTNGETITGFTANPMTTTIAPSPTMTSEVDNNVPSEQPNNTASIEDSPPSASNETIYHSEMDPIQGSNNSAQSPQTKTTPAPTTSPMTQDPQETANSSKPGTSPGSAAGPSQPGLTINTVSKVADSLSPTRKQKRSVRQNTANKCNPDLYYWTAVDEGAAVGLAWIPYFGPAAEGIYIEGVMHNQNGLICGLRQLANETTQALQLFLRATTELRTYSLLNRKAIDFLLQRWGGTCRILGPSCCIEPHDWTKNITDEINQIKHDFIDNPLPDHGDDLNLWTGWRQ
The experiment in a line: ELISA, coated GP 1 μg/mL, antibody titrated from 10 μg/mL.

For the next test, the target named is T2, EBOV GP (Ebola virus (EBOV), UniProt Q05320 33-650).
T2 sequence: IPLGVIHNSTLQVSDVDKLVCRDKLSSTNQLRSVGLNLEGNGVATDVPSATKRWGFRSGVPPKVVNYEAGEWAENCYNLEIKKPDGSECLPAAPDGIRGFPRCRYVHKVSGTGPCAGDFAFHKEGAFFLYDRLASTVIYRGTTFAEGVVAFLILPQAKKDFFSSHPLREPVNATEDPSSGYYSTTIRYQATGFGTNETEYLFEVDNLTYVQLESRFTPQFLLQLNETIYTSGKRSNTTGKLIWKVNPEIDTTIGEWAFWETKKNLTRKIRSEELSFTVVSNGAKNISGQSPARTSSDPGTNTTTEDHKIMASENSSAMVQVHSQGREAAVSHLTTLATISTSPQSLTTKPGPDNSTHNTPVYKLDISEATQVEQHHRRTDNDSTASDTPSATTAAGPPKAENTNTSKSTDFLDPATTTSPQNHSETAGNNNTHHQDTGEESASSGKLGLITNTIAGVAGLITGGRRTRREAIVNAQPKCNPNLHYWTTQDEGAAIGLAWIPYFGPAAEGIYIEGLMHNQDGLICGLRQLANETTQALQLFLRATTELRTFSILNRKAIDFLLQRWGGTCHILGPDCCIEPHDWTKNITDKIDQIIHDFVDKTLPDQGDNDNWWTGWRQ
The test is described as above.

The next test concerns the target T3, SUDV GP (SUDV, UniProt Q7T9D9 33-650).
T3 sequence: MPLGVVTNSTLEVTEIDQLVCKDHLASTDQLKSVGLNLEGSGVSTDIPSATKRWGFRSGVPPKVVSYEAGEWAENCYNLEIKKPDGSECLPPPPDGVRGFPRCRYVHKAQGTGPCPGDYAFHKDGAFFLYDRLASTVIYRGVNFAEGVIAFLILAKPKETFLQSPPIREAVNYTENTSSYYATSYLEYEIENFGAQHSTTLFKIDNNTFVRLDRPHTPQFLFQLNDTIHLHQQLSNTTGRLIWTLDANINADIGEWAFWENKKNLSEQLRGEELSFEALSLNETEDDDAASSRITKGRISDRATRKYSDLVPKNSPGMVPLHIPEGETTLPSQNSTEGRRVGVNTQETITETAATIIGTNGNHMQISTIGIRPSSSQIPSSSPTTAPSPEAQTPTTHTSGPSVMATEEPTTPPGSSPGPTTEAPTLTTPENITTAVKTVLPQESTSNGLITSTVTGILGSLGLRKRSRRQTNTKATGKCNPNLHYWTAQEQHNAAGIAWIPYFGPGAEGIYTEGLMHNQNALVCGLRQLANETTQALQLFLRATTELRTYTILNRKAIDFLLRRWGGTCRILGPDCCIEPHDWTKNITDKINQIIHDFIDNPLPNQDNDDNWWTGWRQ
The test is described as above.

B1: 抗埃博拉病毒糖蛋白GP1亚基的单克隆抗体5E9 (antibody, V domains shown)
VH: EVQLLESGGGLVKPGGSLRLSCVASGFTFTNAWMNWVRQAPGKGLEWVGRIKSKTDSGTTDYAAPVNGRFTISRDDSKNTLYLQMNSLKTEDTAVYYCTTRYQYNGMDVWGQGTTVTVSS
VL: QPVLTQPPSVSGAPGQRVTISCTGRSSNIGAGYDVHWYQHLPGTAPKLLIYANTNRPSGVPDRFSGSKSGTSASLAITGLQPGDEADYYCQSYDSRLSDHVVFGGGTKLTVLG
As usually defined, the EC50 is the midpoint of the concentration-response curve. Low values mean a more potent agent, high ones a less potent agent. Turning to B1, the EC50 in the test with GP 95-295 is 11.8 ng/mL; with sGP, 5 ng/mL; with GP1, 4.1 ng/mL; with RESTV GP, 149 ng/mL; with EBOV GP it was 6 ng/mL; with SUDV GP, more than 1000 ng/mL.
